The target in series [1] is T1, Thrombin (Homo sapiens, UniProt P00734). The series can be described thus: Inhibitory action of hirudin against thrombin induced death. It counts as in vivo, mice. Set-up: Thrombin (10 NIH unit/10 g) was administered intravenously to male mice. The following applies: for Score: score 0 normal, 1 disappearance of roll over reflection, 2 death within 20 minutes. As for the experimental part: Thrombin (10 NIH unit/10 g) was administered intravenously to male mice (20-25 g), without anesthesia, and the anti-thrombin activity of the tested compound was evaluated by observing the disappearance of roll over reflection and death as indexes. All the tested compounds were dissolved in saline, and 0.05 ml/10 g were administered intravenously 5 min prior to the thrombin injection.

Series [2] can be described thus: Prolongation of bleeding time (tail vein puncture wound). The following applies: for Bleeding time: wound 5 minutes after administration. It counts as in vivo, mice. As for the experimental part:
Samples were injected into male mice (20-25 g) under anesthesia using sodium pentobarbital (40 mg/kg i.p.) via their tail vein. A puncture wound was made by inserting a 21 G needle (outer diameter 0.85 mm) into the other side of the tail vein 5 minutes after the administration of the test compounds, and the bleeding time of the wound was measured. A filter paper was put on the wound, with changes every 15 seconds. Bleeding time is defined as the time required until no red spot is observed on the filter paper.

Series [3] addresses T1, Thrombin. The series can be described thus: anti-thrombin activity, chromogenic substrate chromozyme TH. To be noted: purified by C4 reverse phase HPLC. The arrangement: purchased Sigma. Format: biochemical. As for the experimental part:
Precipitated cells of each sample were suspended in 1 ml of 50 mM Tris-HCl (pH7.5) containing 25% sucrose and 1 mM EDTA, followed by incubation at room temperature for 10 minutes. After collecting the cells by centrifugation at 6,000×g for 10 minutes, the cells were suspended in 1 ml of cold water to release the substances in the periplasmic space by osmotic shock. Cells were removed from the periplasmic fraction by centrifugation at 6,000×g for 10 minutes. The amount of secreted and periplasmically-accumulated hirudin was determined by measuring the anti-thrombin activity in the supernatant. The antithrombin activity is based on quantitative measurement of the color intensity generated by thrombin's hydrolytic activity on the synthetic chromogenic substrate chromozyme TH (Tocylglycil-prolylarginine-4-nitroanilideacetate, Boeringer-Mannheim) and hirudin's inhibitory activity against thrombin, which will repress color generation.
This reaction was carried out as follows. […]
Both the substrate and chromozymeTH were added to a final concentration of 200 μM to measure the release of p-nitroanilide by the increase of absorbance at 405 nm of the solution per 1 minute, and the anti-thrombin activity (ATU) was calculated.

Regarding “HV1: hirudin variant 1, natural anti-coagulation peptide of Hirudo medicinalis, produced here by secretion from E. coli [reference compound]”, the Score with Thrombin [1] (200 μg/10 g weight i.v. 5 min prior to thrombin 10 NIH unit/10 g) is on record as 0.6; in the series with Thrombin [1] (500 μg/10 g weight i.v. 5 min prior to thrombin 10 NIH unit/10 g), 0.4.

B1: HV1C3: hirudin analog having the hirudin HV1 amino acid sequence up to the 52nd amino acid and thereafter substituted with the sequence of HV3 (protein)
chain: VVYTDCTESGQNLCLCEGSNVCGQGNKCILGSDGEKNQCVTGEGTPKPQSHNQGDFEPIPEDAYDE
In the case of B1, the Bleeding time was determined as 264.0 ± 17.6 s in series [2] (50 μg/10 g weight i.v.), 291.0 ± 30.2 s in series [2] (100 μg/10 g weight i.v.) and 369.0 ± 34.9 s in series [2] (200 μg/10 g weight i.v.). The “bleeding tendency compared with hirudin HV1” value in series [2] (mice, in words) was “less bleeding than hirudin HV1”. Besides, the Score stood at 1.2 in the series with Thrombin [1] (20 μg/10 g weight i.v. 5 min prior to thrombin 10 NIH unit/10 g), 0.6 with Thrombin [1] (50 μg/10 g weight i.v. 5 min prior to thrombin 10 NIH unit/10 g) and 0.4 in the series with Thrombin [1] (100 μg/10 g weight i.v. 5 min prior to thrombin 10 NIH unit/10 g). Also, in the series with Thrombin [1] (in vivo, mice, relative to HV1), the “inhibitory activity compared with hirudin HV1 in thrombin induced death” value is listed as 4-5 times. The “anti-thrombin activity (specific / relative activity) of purified product” value in the series with Thrombin [3] is on record as 11,250 ATU/mg.

B2: HV3: natural hirudin variant of 66 amino acids, produced here by secretion from E. coli (protein)
chain: ITYTDCTESGQNLCLCEGSNVCGKGNKCILGSQGKDNQCVTGEGTPKPQSHNQGDFEPIPEDAYDE
In the case of B2, the “anti-thrombin activity (specific / relative activity) of purified product” value with Thrombin [3] is recorded as 8139 ATU/mg.

Values taken from patent US5516656A, “Production of a new hirudin analog and anticoagulant pharmaceutical composition containing the same” (Nippon Mining Company, Limited, priority 1990, dated 1996).
